{"source": "paper PMC6620384", "origin": "cited, not measured here", "target": "UNC5B-Fc (UniProt Q8IZJ1)", "sequence (Q8IZJ1 27-377)": "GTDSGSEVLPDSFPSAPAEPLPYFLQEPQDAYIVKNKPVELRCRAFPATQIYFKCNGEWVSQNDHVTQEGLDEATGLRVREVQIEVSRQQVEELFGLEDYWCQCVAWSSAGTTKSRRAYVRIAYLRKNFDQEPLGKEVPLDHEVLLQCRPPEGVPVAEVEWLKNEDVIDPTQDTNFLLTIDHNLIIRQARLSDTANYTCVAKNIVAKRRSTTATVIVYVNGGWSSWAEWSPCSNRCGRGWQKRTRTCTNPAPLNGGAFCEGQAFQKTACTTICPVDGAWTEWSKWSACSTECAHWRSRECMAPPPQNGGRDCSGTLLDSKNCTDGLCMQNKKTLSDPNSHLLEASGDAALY", "test": "SPR"}
{"substance": "Robo4-Fc (from UniProt Q8WZ75)", "values": [{"measurement": "Kd", "result": 12, "unit": "nM"}]}
